Molecular target: the molecule itself
Assay: SEC; 24 mL Superdex-200, 150 mM NaCl, 50 mM Tris-HCl pH 8.0; MW estimated from a linear fit of MW standards

B1: 6×His-PqsE (wild type, P. aeruginosa) (enzyme)
chain: MLRLSAPGQLDDDLCLLGDVQVPVFLLRLGEASWALVEGGISRDAELVWADLCRWVADPSQVHYWLITHKHYDHCGLLPYLCPRLPNVQVLASERTCQAWKSESAVRVVERLNRQLLRAEQRLPEACAWDALPVRAVADGEWLELGPRHRLQVIEAHGHSDDHVVFYDVRRRRLFCGDALGEFDEAEGVWRPLVFDDMEAYLESLERLQRLPTLLQLIPGHGGLLRGRLAADGAESAYTECLRLCRRLLWRQSMGESLDELSEELHRAWGGQSVDFLPGELHLGSMRRMLEILSRQALPLD
notes: also called WT PqsE
stoichiometry N: 2

From PMC12077149 (mBio, 2025)
